# Tests used:
# Assay in all cases: holdup assay
# Design in all cases: key: below the threshold = too weak to quantify, mostly under pKd 3.1 to 4
# [1] = target: T1, APBA3_1, O96018
# T1 sequence (O96018 389-490, limits assumed, looked up): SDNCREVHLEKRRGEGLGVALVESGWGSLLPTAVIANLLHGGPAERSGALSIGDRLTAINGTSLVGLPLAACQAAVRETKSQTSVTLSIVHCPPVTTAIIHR
# [2] = target: T2, ARHGAP21, Q5T5U3
# T2 sequence (Q5T5U3 45-169, limits assumed, looked up): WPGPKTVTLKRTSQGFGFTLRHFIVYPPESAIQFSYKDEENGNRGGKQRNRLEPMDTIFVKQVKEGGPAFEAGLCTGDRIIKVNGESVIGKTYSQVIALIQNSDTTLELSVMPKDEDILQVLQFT
# [3] = target: T3, DFNB31_3, Q9P202
# T3 sequence (Q9P202 811-907, limits assumed, looked up): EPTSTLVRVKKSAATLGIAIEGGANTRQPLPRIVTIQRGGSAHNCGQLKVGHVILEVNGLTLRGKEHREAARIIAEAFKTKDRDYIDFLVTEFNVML
# [4] = target: DLG1_2, Q12959
# [5] = target: DLG2_2, Q15700
# [6] = target: DLG4_3, P78352
# [7] = target: DLG5_1, Q8TDM6
# [8] = target: T4, DVL3, Q92997
# T4 sequence (Q92997 244-331, limits assumed, looked up): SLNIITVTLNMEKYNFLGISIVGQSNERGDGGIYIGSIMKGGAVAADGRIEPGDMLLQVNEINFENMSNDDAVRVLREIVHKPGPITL
# [9] = target: FRMPD2_1, Q68DX3
# [10] = target: FRMPD3, Q5JV73
# [11] = target: T5, GRIP1_2, Q9Y3R0
# T5 sequence (Q9Y3R0 145-248, limits assumed, looked up): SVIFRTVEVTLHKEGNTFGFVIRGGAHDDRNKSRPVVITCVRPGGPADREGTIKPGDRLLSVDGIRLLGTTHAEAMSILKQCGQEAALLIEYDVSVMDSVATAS
# [12] = target: GRIP2_3, Q9C0E4
# [13] = target: GRIP2_6, Q9C0E4
# [14] = target: GRIP2_7, Q9C0E4
# [15] = target: T6, HTRA4, P83105
# T6 sequence (P83105 378-476, limits assumed, looked up): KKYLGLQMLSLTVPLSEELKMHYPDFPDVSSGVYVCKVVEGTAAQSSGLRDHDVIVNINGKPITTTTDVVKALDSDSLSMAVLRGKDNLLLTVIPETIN
# [16] = target: IL16_4, Q14005
# [17] = target: Inadl_2, Q8NI35
# [18] = target: Inadl_8, Q8NI35
# [19] = target: Inadl_9, Q8NI35
# [20] = target: LAP2, Q96RT1
# [21] = target: LDB3, O75112
# [22] = target: T7, LRRC7, Q96NW7
# T7 sequence (Q96NW7 1440-1537, limits assumed, looked up): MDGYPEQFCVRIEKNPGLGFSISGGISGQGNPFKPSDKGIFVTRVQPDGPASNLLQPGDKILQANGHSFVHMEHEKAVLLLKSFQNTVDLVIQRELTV
# [23] = target: MAGI2_2, Q86UL8
# [24] = target: MAST2, Q6P0Q8
# [25] = target: T8, MPP6, Q9NZW5
# T8 sequence (Q9NZW5 125-219, limits assumed, looked up): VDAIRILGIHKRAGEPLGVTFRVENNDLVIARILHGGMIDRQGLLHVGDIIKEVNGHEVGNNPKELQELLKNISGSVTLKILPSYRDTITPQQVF
# [26] = target: T9, RHPN1, Q8TCX5
# T9 sequence (Q8TCX5 508-602, limits assumed, looked up): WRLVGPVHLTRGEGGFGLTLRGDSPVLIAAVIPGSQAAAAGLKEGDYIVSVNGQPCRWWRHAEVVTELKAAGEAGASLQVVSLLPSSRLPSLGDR
# [27] = target: SCRIB_1, Q14160
# [28] = target: SNX27, Q96L92
# [29] = plain residues with an end cap or a label only (N-terminal biotin on a linker: ado-ado)
# [30] = plain residues with an end cap or a label only (N-terminal biotin on a linker: ahx)
# [31] = plain residues with an end cap or a label only (N-terminal biotin on a linker: ttds)
# Chain of Inadl_2, Q8NI35 (Q8NI35 238-335): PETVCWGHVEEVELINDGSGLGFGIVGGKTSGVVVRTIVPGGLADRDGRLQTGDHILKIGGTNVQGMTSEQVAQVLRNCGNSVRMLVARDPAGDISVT
# Chain of GRIP2_3, Q9C0E4 (Q9C0E4 238-339): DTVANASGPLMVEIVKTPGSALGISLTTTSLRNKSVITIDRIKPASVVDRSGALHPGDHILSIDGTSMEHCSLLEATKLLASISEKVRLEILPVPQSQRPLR
# Chain of IL16_4, Q14005 (Q14005 1229-1329): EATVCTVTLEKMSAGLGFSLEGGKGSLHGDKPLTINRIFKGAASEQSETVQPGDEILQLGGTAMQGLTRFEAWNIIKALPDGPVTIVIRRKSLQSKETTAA
# Chain of LAP2, Q96RT1 (Q96RT1 other isoform, or with tags, fused parts or gaps): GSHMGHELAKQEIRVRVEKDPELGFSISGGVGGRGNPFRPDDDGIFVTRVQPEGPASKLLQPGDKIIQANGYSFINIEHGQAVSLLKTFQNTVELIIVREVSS
# Chain of DLG1_2, Q12959 (Q12959 314-412): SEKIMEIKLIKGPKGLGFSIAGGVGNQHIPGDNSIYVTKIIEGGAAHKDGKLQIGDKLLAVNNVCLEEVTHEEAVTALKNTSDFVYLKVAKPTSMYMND
# Chain of Inadl_9, Q8NI35 (Q8NI35 1530-1615): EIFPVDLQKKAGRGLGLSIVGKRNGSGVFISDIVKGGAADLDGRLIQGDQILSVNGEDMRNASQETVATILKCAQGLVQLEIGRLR
# Chain of MAGI2_2, Q86UL8 (Q86UL8 410-522): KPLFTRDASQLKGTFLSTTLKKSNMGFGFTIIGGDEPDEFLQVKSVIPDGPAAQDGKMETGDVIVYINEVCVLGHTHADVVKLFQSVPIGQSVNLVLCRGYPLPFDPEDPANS
# Chain of Inadl_8, Q8NI35 (Q8NI35 1425-1530): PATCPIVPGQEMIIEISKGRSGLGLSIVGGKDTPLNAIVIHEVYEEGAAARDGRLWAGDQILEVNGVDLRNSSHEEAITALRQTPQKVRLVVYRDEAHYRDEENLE
# Chain of DLG5_1, Q8TDM6 (Q8TDM6 617-713): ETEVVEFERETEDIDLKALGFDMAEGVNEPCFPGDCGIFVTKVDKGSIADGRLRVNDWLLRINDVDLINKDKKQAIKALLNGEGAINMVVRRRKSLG
# Chain of DLG4_3, P78352 (P78352 306-403): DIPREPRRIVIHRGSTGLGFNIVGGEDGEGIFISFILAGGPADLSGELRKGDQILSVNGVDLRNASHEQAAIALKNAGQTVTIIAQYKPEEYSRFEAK
# Chain of GRIP2_6, Q9C0E4 (Q9C0E4 648-740): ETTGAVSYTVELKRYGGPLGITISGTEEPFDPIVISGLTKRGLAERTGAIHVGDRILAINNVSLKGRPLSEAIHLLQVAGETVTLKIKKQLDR
# Chain of LDB3, O75112 (O75112 1-94): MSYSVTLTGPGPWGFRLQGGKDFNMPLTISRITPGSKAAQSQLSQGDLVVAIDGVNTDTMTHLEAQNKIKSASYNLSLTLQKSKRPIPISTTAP
# Chain of MAST2, Q6P0Q8 (Q6P0Q8 1099-1202): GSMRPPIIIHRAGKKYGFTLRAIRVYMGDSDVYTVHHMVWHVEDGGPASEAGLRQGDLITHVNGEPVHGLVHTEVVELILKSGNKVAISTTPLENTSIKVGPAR
# Chain of FRMPD3, Q5JV73 (Q5JV73 12-100): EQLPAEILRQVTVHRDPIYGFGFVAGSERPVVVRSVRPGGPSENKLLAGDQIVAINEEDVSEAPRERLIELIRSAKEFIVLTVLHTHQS
# Chain of DLG2_2, Q15700 (Q15700 189-283): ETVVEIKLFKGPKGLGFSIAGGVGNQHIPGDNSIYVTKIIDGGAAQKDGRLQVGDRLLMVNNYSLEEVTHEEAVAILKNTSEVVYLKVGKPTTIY
# Chain of SCRIB_1, Q14160 (Q14160 718-814): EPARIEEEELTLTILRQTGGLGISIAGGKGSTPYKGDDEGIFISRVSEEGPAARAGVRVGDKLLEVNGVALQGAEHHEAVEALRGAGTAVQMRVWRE
# Chain of FRMPD2_1, Q68DX3 (Q68DX3 770-861): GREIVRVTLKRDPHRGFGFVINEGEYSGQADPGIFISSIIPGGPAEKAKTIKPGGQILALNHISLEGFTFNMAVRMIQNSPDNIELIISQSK
# Chain of GRIP2_7, Q9C0E4 (Q9C0E4 934-1023): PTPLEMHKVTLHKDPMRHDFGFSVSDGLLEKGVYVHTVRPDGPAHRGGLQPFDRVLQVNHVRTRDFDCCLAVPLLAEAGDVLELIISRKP
binder,measurement,setting,value
"ELKAEDEVQI [DCHS2, Q6V1P9]",pKd,[1]; [29],below the threshold
same,pKd,[2]; [29],3.92
same,pKd,[3]; [29],below the threshold
same,pKd,[4]; [29],below the threshold
same,pKd,[5]; [29],below the threshold
same,pKd,[6]; [29],below the threshold
same,pKd,[7]; [29],below the threshold
same,pKd,[8]; [29],below the threshold
same,pKd,[9]; [29],below the threshold
same,pKd,[10]; [29],below the threshold
same,pKd,[11]; [29],below the threshold
same,pKd,[12]; [29],below the threshold
same,pKd,[13]; [29],below the threshold
same,pKd,[14]; [29],below the threshold
same,pKd,[15]; [29],below the threshold
same,pKd,[16]; [29],3.6
same,pKd,[17]; [29],below the threshold
same,pKd,[18]; [29],below the threshold
same,pKd,[19]; [29],below the threshold
same,pKd,[20]; [29],below the threshold
same,pKd,[21]; [29],below the threshold
same,pKd,[22]; [29],below the threshold
same,pKd,[23]; [29],below the threshold
same,pKd,[24]; [29],below the threshold
same,pKd,[25]; [29],below the threshold
same,pKd,[26]; [29],below the threshold
same,pKd,[27]; [29],below the threshold
same,pKd,[28]; [29],below the threshold
"SAPATLSSRA [PDLIM2, Q96JY6]",pKd,[1]; [30],below the threshold
same,pKd,[2]; [30],below the threshold
same,pKd,[3]; [30],below the threshold
same,pKd,[4]; [30],below the threshold
same,pKd,[5]; [30],below the threshold
same,pKd,[6]; [30],below the threshold
same,pKd,[7]; [30],below the threshold
same,pKd,[8]; [30],below the threshold
same,pKd,[9]; [30],below the threshold
same,pKd,[10]; [30],below the threshold
same,pKd,[11]; [30],below the threshold
same,pKd,[12]; [30],below the threshold
same,pKd,[13]; [30],below the threshold
same,pKd,[14]; [30],below the threshold
same,pKd,[15]; [30],below the threshold
same,pKd,[16]; [30],below the threshold
same,pKd,[17]; [30],below the threshold
same,pKd,[18]; [30],below the threshold
same,pKd,[19]; [30],below the threshold
same,pKd,[20]; [30],below the threshold
same,pKd,[21]; [30],below the threshold
same,pKd,[22]; [30],below the threshold
same,pKd,[23]; [30],below the threshold
same,pKd,[24]; [30],below the threshold
same,pKd,[25]; [30],below the threshold
same,pKd,[26]; [30],below the threshold
same,pKd,[27]; [30],below the threshold
same,pKd,[28]; [30],below the threshold
"ADENEQVSAV [RAPGEF6, Q8TEU7]",pKd,[1]; [30],below the threshold
same,pKd,[2]; [30],below the threshold
same,pKd,[3]; [30],below the threshold
same,pKd,[4]; [30],4.01
same,pKd,[5]; [30],3.57
same,pKd,[6]; [30],below the threshold
same,pKd,[7]; [30],below the threshold
same,pKd,[8]; [30],below the threshold
same,pKd,[9]; [30],below the threshold
same,pKd,[10]; [30],below the threshold
same,pKd,[11]; [30],below the threshold
same,pKd,[12]; [30],below the threshold
same,pKd,[13]; [30],below the threshold
same,pKd,[14]; [30],below the threshold
same,pKd,[15]; [30],below the threshold
same,pKd,[16]; [30],below the threshold
same,pKd,[17]; [30],below the threshold
same,pKd,[18]; [30],3.86
same,pKd,[19]; [30],below the threshold
same,pKd,[20]; [30],below the threshold
same,pKd,[21]; [30],below the threshold
same,pKd,[22]; [30],below the threshold
same,pKd,[23]; [30],below the threshold
same,pKd,[24]; [30],4.79
same,pKd,[25]; [30],below the threshold
same,pKd,[26]; [30],4.42
same,pKd,[27]; [30],3.65
same,pKd,[28]; [30],5.07
"SGGKRKETLV [NET1, Q7Z628]",pKd,[1]; [31],below the threshold
same,pKd,[2]; [31],below the threshold
same,pKd,[3]; [31],below the threshold
same,pKd,[4]; [31],5.78
same,pKd,[5]; [31],5.26
same,pKd,[6]; [31],4.92
same,pKd,[7]; [31],below the threshold
same,pKd,[8]; [31],below the threshold
same,pKd,[9]; [31],3.95
same,pKd,[10]; [31],below the threshold
same,pKd,[11]; [31],below the threshold
same,pKd,[12]; [31],below the threshold
same,pKd,[13]; [31],below the threshold
same,pKd,[14]; [31],below the threshold
same,pKd,[15]; [31],below the threshold
same,pKd,[16]; [31],below the threshold
same,pKd,[17]; [31],below the threshold
same,pKd,[18]; [31],3.63
same,pKd,[19]; [31],3.66
same,pKd,[20]; [31],below the threshold
same,pKd,[21]; [31],below the threshold
same,pKd,[22]; [31],below the threshold
same,pKd,[23]; [31],5.87
same,pKd,[24]; [31],4.49
same,pKd,[25]; [31],below the threshold
same,pKd,[26]; [31],3.65
same,pKd,[27]; [31],4
same,pKd,[28]; [31],4.33
